Results as given in patent US20210123036A1 (UNIVERSITY OF LIVERPOOL, published 2021).
One block for each binder: values may come before it. Where no end group is shown, it is not given here.

Key:
[1] = molecular target: type I collagen gelatin (skin gelatin); assay: ELISA-type plate binding assay, comparison of apparent Kd
[2] = molecular target: type I collagen gelatin (skin gelatin); assay: ELISA-type plate binding assay, biotinylated protein on gelatin-coated plate
type II collagen gelatin [3] = molecular target: T1, type II collagen gelatin; assay: as above
T1 construct: Denatured collagen, coated on plates (ELISA-type assay, cell adhesion) or added in solution (NMR); also called type II gelatin; collagen type II gelatin

type II collagen gelatin [4] = molecular target: T1, type II collagen gelatin; assay: cell-based or functional assay
type II collagen gelatin [5] = molecular target: T1, type II collagen gelatin; assay: ELISA-type plate binding assay, comparison of Kd
Experimental: The chimeric peptides were assessed for binding to collagen type I and type II gelatin using the plate binding assay (described in the materials and methods section). […] A peptide comprising three modules corresponding to module 1 was not tested.

type II collagen gelatin [6] = molecular target: T1, type II collagen gelatin; assay: ELISA-type plate binding assay, comparison of Kd (summary of the Examples)

Sequence of type I collagen gelatin (skin gelatin) (P02453 162-1217, chain 1 of 2): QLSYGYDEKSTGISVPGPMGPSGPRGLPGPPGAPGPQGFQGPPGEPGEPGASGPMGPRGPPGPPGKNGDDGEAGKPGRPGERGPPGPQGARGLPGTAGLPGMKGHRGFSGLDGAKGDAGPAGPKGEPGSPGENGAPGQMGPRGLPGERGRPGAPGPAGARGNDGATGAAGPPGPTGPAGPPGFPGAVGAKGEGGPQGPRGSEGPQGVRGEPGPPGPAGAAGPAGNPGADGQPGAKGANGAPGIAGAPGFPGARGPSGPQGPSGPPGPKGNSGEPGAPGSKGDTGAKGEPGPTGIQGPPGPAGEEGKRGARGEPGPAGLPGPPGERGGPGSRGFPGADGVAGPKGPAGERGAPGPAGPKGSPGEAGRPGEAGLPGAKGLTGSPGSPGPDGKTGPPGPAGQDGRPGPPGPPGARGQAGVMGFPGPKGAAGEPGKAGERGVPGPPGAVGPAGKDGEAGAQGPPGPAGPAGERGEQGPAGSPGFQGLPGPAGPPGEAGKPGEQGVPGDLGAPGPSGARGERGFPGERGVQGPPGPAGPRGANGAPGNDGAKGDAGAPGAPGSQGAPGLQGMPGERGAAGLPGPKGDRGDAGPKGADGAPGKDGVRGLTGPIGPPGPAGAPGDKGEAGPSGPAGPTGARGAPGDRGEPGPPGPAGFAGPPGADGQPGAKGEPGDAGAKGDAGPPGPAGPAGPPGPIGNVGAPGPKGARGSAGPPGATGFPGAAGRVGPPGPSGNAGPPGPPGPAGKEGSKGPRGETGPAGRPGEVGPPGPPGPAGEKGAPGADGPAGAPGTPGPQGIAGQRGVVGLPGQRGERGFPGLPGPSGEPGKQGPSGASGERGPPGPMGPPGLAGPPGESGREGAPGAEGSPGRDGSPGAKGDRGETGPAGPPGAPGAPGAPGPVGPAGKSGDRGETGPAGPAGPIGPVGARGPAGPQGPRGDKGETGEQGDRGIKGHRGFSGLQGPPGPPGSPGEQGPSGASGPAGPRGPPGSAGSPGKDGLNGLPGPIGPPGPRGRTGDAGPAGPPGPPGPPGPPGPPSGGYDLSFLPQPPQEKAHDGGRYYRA
Sequence of type I collagen gelatin (skin gelatin) (P02465 80-1117, chain 2 of 2, further chain): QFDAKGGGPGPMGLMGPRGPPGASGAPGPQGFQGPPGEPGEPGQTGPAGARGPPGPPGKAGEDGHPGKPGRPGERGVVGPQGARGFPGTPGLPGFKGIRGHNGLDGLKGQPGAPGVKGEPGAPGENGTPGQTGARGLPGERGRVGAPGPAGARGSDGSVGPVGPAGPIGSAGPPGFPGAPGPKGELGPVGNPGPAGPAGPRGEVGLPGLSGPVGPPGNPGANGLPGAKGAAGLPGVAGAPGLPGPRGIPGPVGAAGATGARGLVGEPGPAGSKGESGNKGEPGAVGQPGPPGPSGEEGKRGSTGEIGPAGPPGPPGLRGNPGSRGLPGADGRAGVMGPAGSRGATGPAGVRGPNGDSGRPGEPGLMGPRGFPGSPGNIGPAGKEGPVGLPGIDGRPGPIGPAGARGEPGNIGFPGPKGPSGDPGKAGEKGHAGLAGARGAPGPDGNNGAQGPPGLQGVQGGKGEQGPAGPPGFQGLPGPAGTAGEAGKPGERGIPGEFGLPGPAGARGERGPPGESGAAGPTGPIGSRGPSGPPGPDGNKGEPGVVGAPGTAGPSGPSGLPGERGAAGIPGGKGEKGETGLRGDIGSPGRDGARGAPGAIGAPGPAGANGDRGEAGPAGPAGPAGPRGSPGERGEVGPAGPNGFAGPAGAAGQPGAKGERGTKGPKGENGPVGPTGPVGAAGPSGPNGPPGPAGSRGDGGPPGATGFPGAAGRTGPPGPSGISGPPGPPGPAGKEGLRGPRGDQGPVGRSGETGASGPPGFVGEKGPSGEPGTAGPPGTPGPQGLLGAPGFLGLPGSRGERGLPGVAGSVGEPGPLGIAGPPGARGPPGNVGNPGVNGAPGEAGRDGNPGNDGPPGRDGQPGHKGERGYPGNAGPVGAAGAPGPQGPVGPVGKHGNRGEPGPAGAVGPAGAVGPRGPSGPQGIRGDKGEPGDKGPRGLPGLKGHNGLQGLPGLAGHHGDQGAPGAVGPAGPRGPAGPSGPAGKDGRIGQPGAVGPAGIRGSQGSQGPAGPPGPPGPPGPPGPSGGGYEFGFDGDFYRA

B3: collagen binding domain (CBD) of gelatinase A (MMP-2) (other)
chain: ADGEYCKFPFLFNGKEYNSCTDTGRSDGFLWCSTTYNFEKDGKYGFCPHEALFTMGGNAEGQPCKFPFRFQGTSYDSCTTEGRTDGYRWCGTTEDYDRDKKYGFCPETAMSTVGGNSEGAPCVFPFTFLGNKYESCTSAGRSDGKMWCATTANYDDDRKWGFCPD
notes: Expressed in Shuffle T7 E. coli with a His6-SUMO tag that was cleaved off; also called CBD of MMP-2; Full length CBD
Kd [2]: 2.58 nM | Kd (type II collagen gelatin [3]): 20.4 nM

B4: conjugate comprising MSCs and the peptide 222 (other)
chain: EGQVVFTMYGNAEGQPCKFPFRFQGTSYDSCTTEGRTDGYRWCGTTEDYDRDKKYGFCPHEALFTMGGNAEGQPCKFPFRFQGTSYDSCTTEGRTDGYRWCGTTEDYDRDKKYGFCPETALFTMGGNAEGQPCKFPFRFQGTSYDSCTTEGRTDGYRWCGTTEDYDRDKKYGFCPDQGYSL
modifications: carboxylic residues cationised by covalent coupling of N,N'-dimethyl-1,3-propanediamine (DMPA); corona of glycolic acid ethoxylate 4-nonylphenyl ether surfactant; incorporated into the membrane of mesenchymal stem cells
median % adhesion relative to plastic (type II collagen gelatin [4]): 224%

B5: peptide 222 comprising three modules corresponding to module 2 of the CBD of MMP-2 (designed binder)
chain: B4 chain
notes: Expressed in Shuffle cells with a His6-SUMO tag that was cleaved off
fold higher affinity than 333 (type II collagen gelatin [5]): 10 fold | fold higher affinity than the full length CBD (type II collagen gelatin [5]): 10 fold | fold higher affinity than the naturally occurring CBD of MMP-2 (type II collagen gelatin [6]): ~14 fold | Kd [2]: 0.497 nM | Kd (type II collagen gelatin [3]): 1.46 nM

More lines, in order of falling Kd [2], values ahead:

fold better binding than to type II gelatin [1]: 3 fold | Kd [2]: 4090 nM | Kd (type II collagen gelatin [3]): 12000 nM
B1: module 3 of the CBD of MMP-2 (other)
chain: SEGAPCVFPFTFLGNKYESCTSAGRSDGKMWCATTANYDDDRKWGFCPD
modifications: cysteine pairing not given here; also: biotinylated for plate binding assay
notes: also called M3

Kd [2]: 3720 nM | Kd (type II collagen gelatin [3]): 4260 nM
B2: module 2 of the CBD of MMP-2 (other)
chain: AEGQPCKFPFRFQGTSYDSCTTEGRTDGYRWCGTTEDYDRDKKYGFCPE
modifications: cysteine pairing not given here; also: biotinylated for plate binding assay
notes: also called M2

Kd [2]: 0.0159 nM | Kd (type II collagen gelatin [3]): 117 nM
B6: peptide 333 comprising three modules corresponding to module 3 of the CBD of MMP-2 (designed binder)
chain: EGQVVSTVYGNSEGAPCVFPFTFLGNKYESCTSAGRSDGFLWCATTANYDDDRKWGFCPHEALFTMGGNSEGAPCVFPFTFLGNKYESCTSAGRSDGKRWCATTANYDDDRKWGFCPETAMSTVGGNSEGAPCVFPFTFLGNKYESCTSAGRSDGKMWCATTANYDDDRKWGFCPDQGYSL
